In experiment [1] the target is T1, human FolR3 ECD-AcTev-Fcknob-Avi tag + Fc hole, biotinylated monomeric Fc fusion (human, UniProt P0DOX5 223-449 = IgG part).
T1 construct: also called huFolR3; FolR3-Fc
The experiment is described as follows: SPR ProteOn, Fab analyte.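 Further: recombinant antigens immobilized, purified Fab two-fold dilutions injected in parallel channels, 200 s association and 600 s dissociation, buffer-only channel as in-line reference.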
Protocol: (§1) Immobilization of antigens (ligand): Recombinant antigens were diluted with PBST (10 mM phosphate, 150 mM sodium chloride pH 7.4, 0.005% Tween 20) to 10 μg/ml, then injected at 30 μl/minute in vertical orientation.
(§2) Injection of analytes: For ‘one-shot kinetics’ measurements, injection direction was changed to horizontal orientation, two-fold dilution series of purified Fab (varying concentration ranges) were injected simultaneously along separate channels 1-5, with association times of 200 s, and dissociation times of 600 s. Buffer (PBST) was injected along the sixth channel to provide an “in-line” blank for referencing. Association rate constants (kₒₙ) and dissociation rate constants (koff) were calculated using a simple one-to-one Langmuir binding model in ProteOn Manager v3.1 software by simultaneously fitting the association and dissociation sensorgrams. The equilibrium dissociation constant (KD) was calculated as the ratio koff/kₒₙ.

For experiment [2], the target named is T2, human FolR2 ECD-AcTev-Fcknob-Avi tag + Fc hole, biotinylated monomeric Fc fusion (human, UniProt P0DOX5 223-449 = IgG part).
T2 construct: also called huFolR2; FolR2-Fc
Put plainly: SPR ProteOn, Fab analyte.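 Further: recombinant antigens immobilized, purified Fab two-fold dilutions injected in parallel channels, 200 s association and 600 s dissociation, buffer-only channel as in-line reference.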
Protocol: as §1, §2

The target of experiment [3] is T3, cynomolgus FolR1 ECD-AcTev-Fcknob-Avi tag + Fc hole, biotinylated monomeric Fc fusion (cynomolgus, UniProt P0DOX5 223-449 = IgG part).
T3 construct: also called cyFolR1; cyno FolR1-Fc
The experiment is described as follows: SPR ProteOn, Fab analyte.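 Further: recombinant antigens immobilized, purified Fab two-fold dilutions injected in parallel channels, 200 s association and 600 s dissociation, buffer-only channel as in-line reference.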
Protocol: as §1, §2

Experiment [4] concerns the target T4, human FolR1 ECD-AcTev-Fcknob-Avi tag + Fc hole, biotinylated monomeric Fc fusion (human, UniProt P0DOX5 223-449 = IgG part).
T4 construct: also called huFolR1; huFolR1-Fc
The experiment is described as follows: SPR ProteOn, Fab analyte.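 Further: recombinant antigens immobilized, purified Fab two-fold dilutions injected in parallel channels, 200 s association and 600 s dissociation, buffer-only channel as in-line reference.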
Protocol: as §1, §2

Experiment [5] has as its target T1, human FolR3 ECD-AcTev-Fcknob-Avi tag + …. Put plainly: SPR, IgG single injection. On the technique in general: Surface plasmon resonance follows binding to a sensor surface in real time, without labels.
Experiment [6] deals with T2, human FolR2 ECD-AcTev-Fcknob-Avi tag + …. The experiment is described as follows: SPR, IgG single injection.
In experiment [7] the target is T5, cynomolgus TIM-3 on isolated cyno CD14+ monocytes (cynomolgus).
T5 construct: whole, on cells
Put plainly: flow cytometry, cyno CD14+ monocytes cyno2. (A flow cytometer gives signals particle by particle.)
Description: (§3) CD14+ Monocytes were isolated from cynomolgus monkey anticoagulated peripheral blood (Covance) by density gradient centrifugation using Ficoll-Paque (GE Healthcare) (see General Protocols in the User Manuals or visit www.miltenyibiotec.com/protocols) and subsequent positive selection via NHP CD14 MicroBeads. First the CD14+ cells are magnetically labeled with CD14 MicroBeads. Then the cell suspension is loaded onto a MACS® Column which is placed in the magnetic field of a MACS Separator. The magnetically labeled CD14+ cells are retained in the column. The unlabeled cells run through, this cell fraction is depleted of CD14+ cells. After removal of the column from the magnetic field, the magnetically retained CD14+ cells can be eluted as the positively selected cell fraction. After centrifugation at 200×g for 10 min at room temperature the monocytes were harvested and used directly in binding assay or resuspended in freezing medium (10% DMSO, 90% FCS) at 1.0E+07 cells/ml and stored in liquid nitrogen.
(§4) 1×10⁵ CD14+ isolated cyno monocytes (50 μl/well) were put into 98 well-v bottom MTP in fresh culture medium and incubated with Redimune® NF Liquid for 15 min at RT to block unspecific binding. Than 50 μl/well of Alexa488 labeled anti-TIM3 (10 μg/ml in cell culture medium) were added and incubated for 1 h at 4° C. After washing and centrifugation MFI signals of stained cells were analyzed by BD Biosciences FACSCanto flow cytometer.

Experiment [8] addresses T5, cynomolgus TIM-3 on isolated cyno CD14+ …. The experiment is described as follows: flow cytometry, cyno CD14+ monocytes cyno3.
Description: as §3, §4
Experiment [9] addresses T6, human TIM-3 on cells (human, UniProt Q8TDQ0 22-301).
T6 construct: also called CHO-Tim3; rec CHOK1 cells expressing huTIM-3
Put plainly: flow cytometry, human CD14+ monocytes donor2.
Description: (§5) CD14+ Monocytes were isolated from anticoagulated peripheral blood of healthy donors by density gradient centrifugation using Ficoll-Paque (GE Healthcare) (see General Protocols in the User Manuals or visit www.miltenyibiotec.com/protocols) and subsequent positive selection via CD14 MicroBeads. First the CD14+ cells are magnetically labeled with CD14 MicroBeads. Then the cell suspension is loaded onto a MACS® Column which is placed in the magnetic field of a MACS Separator. The magnetically labeled CD14+ cells are retained in the column. The unlabeled cells run through, this cell fraction is depleted of CD14+ cells. After removal of the column from the magnetic field, the magnetically retained CD14+ cells can be eluted as the positively selected cell fraction. After centrifugation at 200×g for 10 min at room temperature the monocytes were harvested and used directly in binding assay or resuspended in freezing medium (10% DMSO, 90% FCS) at 1.0E+07 cells/ml and stored in liquid nitrogen.
(§6) 1×10⁵ CD14+ isolated human monocytes (50 μl/well) were put into 98 well-v bottom MTP in fresh culture medium and incubated with Redimune® NF Liquid for 15 min at RT to block unspecific binding. […] After washing and centrifugation MFI signals of stained cells were analyzed by BD Biosciences FACSCanto flow cytometer.

Experiment [10] deals with T6, human TIM-3 on cells. The experiment is described as follows: cell-based or functional assay.
The target in experiment [11] is T6, human TIM-3 on cells. Put plainly: flow cytometry, human CD14+ monocytes donor3.
Description: as §5, §6
Experiment [12] addresses T6, human TIM-3 on cells. Put plainly: flow cytometry, human CD14+ monocytes donor1.
Description: as §5, §6
The target in experiment [13] is T5, cynomolgus TIM-3 on isolated cyno CD14+ …. Put plainly: flow cytometry, cyno CD14+ monocytes cyno1.

B1: 15A1 Fab (Fab, V domains shown)
VH: QVQLVQSGAEVKKPGASVKVSCKASGYTFTSYYMHWVRQAPGQGLEWMGIINPSGGSTSYAQKFQGRVTMTRDTSTSTVYMELSSLRSEDTAVYYCARNYYIGVVTFDYWGQGTLVTVSS
VL: QAVVTQEPSLTVSPGGTVTLTCGSSTGAVTTSNYANWVQEKPGQAFRGLIGGTNKRAPGTPARFSGSLLGGKAALTLSGAQPEDEAEYYCALWYSNLWVFGGGTKLTVL
Broadly, the Kd is the concentration at which binding is half-saturated. As for B1, the binding result in [1] and in experiment [2] was “no binding” in each case. In addition, the equilibrium dissociation constant (Kd) in experiment [3] is 17.3 nM; in experiment [4], 30.9 nM.

B2: 18D3 Fab (Fab, V domains shown)
VH: QVQLVQSGAEVKKPGASVKVSCKASGYTFTSYYMHWVRQAPGQGLEWMGIINPSGGSTSYAQKFQGRVTMTRDTSTSTVYMELSSLRSEDTAVYYCARNYYTGGSSAFDYWGQGTLVTVS
VL: QAVVTQEPSLTVSPGGTVTLTCGSSTGAVTTSNYANWVQEKPGQAFRGLIGGTNKRAPGTPARFSGSLLGGKAALTLSGAQPEDEAEYYCALWYSNLWVFGGGTKLTVL
For the molecule B2, the binding result in experiment [1] and in [2] was “no binding” in each case. Further, the figures for the Kd in [3] and in experiment [4] were 40.2 nM and 93.6 nM, respectively.

B3: 16A3 Fab (Fab, V domains shown)
VH: QVQLVQSGAEVKKPGASVKVSCKASGYTFTSYYMHWVRQAPGQGLEWMGIINPSGGSTSYAQKFQGRVTMTRDTSTSTVYMELSSLRSEDTAVYYCARNYYAGVTPFDYWGQGTLVTVSS
VL: QAVVTQEPSLTVSPGGTVTLTCGSSTGAVTTSNYANWVQEKPGQAFRGLIGGTNKRAPGTPARFSGSLLGGKAALTLSGAQPEDEAEYYCALWYSNLWVFGGGTKLTVL
For B3, the binding result in experiment [1] and in experiment [2] was “no binding” in each case. Besides, the values for the Kd in experiment [3] and in experiment [4] were 18 nM and 21.7 nM, respectively.

B4: 18D3 IgG (antibody, V domains shown)
VH: QVQLVQSGAEVKKPGASVKVSCKASGYTFTSYYMHWVRQAPGQGLEWMGIINPSGGSTSYAQKFQGRVTMTRDTSTSTVYMELSSLRSEDTAVYYCARNYYTGGSSAFDYWGQGTLVTVS
VL: QAVVTQEPSLTVSPGGTVTLTCGSSTGAVTTSNYANWVQEKPGQAFRGLIGGTNKRAPGTPARFSGSLLGGKAALTLSGAQPEDEAEYYCALWYSNLWVFGGGTKLTVL
notes: human IgG1
Consider B4, for which the binding result in experiment [5] and in experiment [6] was “no binding (tested: 500 nM)” each time.

B5: 19A4 Fab (Fab, V domains shown)
VH: QVQLVQSGAEVKKPGASVKVSCKASGYTFTSYYMHWVRQAPGQGLEWMGIINPSGGSTSYAQKFQGRVTMTRDTSTSTVYMELSSLRSEDTAVYYCARGGWIRWEHFDYWGQGTLVTVSS
VL: QAVVTQEPSLTVSPGGTVTLTCGSSTGAVTTSNYANWVQEKPGQAFRGLIGGTNKRAPGTPARFSGSLLGGKAALTLSGAQPEDEAEYYCALWYSNLWVFGGGTKLTVL
B5: the Kd in [3] amounted to 4250 nM; in experiment [4], 2050 nM.

B6: 21D1 Fab (Fab, V domains shown)
VH: QVQLVQSGAEVKKPGASVKVSCKASGYTFTSYYMHWVRQAPGQGLEWMGIINPSGGSTSYAQKFQGRVTMTRDTSTSTVYMELSSLRSEDTAVYYCARNYYVGVSPFDYWGQGTLVTVSS
VL: QAVVTQEPSLTVSPGGTVTLTCGSSTGAVTTSNYANWVQEKPGQAFRGLIGGTNKRAPGTPARFSGSLLGGKAALTLSGAQPEDEAEYYCALWYSNLWVFGGGTKLTVL
B6: the binding result in experiment [1] and in [2] was “no binding” each time. Also, the Kd in experiment [3] came out at 32.1 nM; in experiment [4], 62.6 nM.

B7: 15H7 Fab (Fab, V domains shown)
VH: QVQLVQSGAEVKKPGASVKVSCKASGYTFTSYYMHWVRQAPGQGLEWMGIINPSGGSTSYAQKFQGRVTMTRDTSTSTVYMELSSLRSEDTAVYYCARNYYLFSTSFDYWGQGTLVTVSS
VL: QAVVTQEPSLTVSPGGTVTLTCGSSTGAVTTSNYANWVQEKPGQAFRGLIGGTNKRAPGTPARFSGSLLGGKAALTLSGAQPEDEAEYYCALWYSNLWVFGGGTKLTVL
As for B7, the binding result in experiment [1] and in experiment [2] was “no binding” throughout. In experiment [3], the Kd was 72.5 nM.

B8: 19E5 Fab (Fab, V domains shown)
VH: QVQLVQSGAEVKKPGASVKVSCKASGYTFTSYYMHWVRQAPGQGLEWMGIINPSGGSTSYAQKFQGRVTMTRDTSTSTVYMELSSLRSEDTAVYYCARGEWRRYTSFDYWGQGTLVTVSS
VL: QAVVTQEPSLTVSPGGTVTLTCGSSTGAVTTSNYANWVQEKPGQAFRGLIGGTNKRAPGTPARFSGSLLGGKAALTLSGAQPEDEAEYYCALWYSNLWVFGGGTKLTVL
For B8, in experiment [3], the Kd was 276 nM.

B9: 19H3 Fab (Fab, V domains shown)
VH: QVQLVQSGAEVKKPGASVKVSCKASGYTFTSYYMHWVRQAPGQGLEWMGIINPSGGSTSYAQKFQGRVTMTRDTSTSTVYMELSSLRSEDTAVYYCARTGWSRWGYMDYWGQGTLVTVSS
VL: QAVVTQEPSLTVSPGGTVTLTCGSSTGAVTTSNYANWVQEKPGQAFRGLIGGTNKRAPGTPARFSGSLLGGKAALTLSGAQPEDEAEYYCALWYSNLWVFGGGTKLTVL
Consider B9, for which the binding result in experiment [1], in [2], in experiment [3] and in experiment [4] was “no binding” each time.

B10: 20G6 Fab (Fab, V domains shown)
VH: QVQLVQSGAEVKKPGASVKVSCKASGYTFTSYYMHWVRQAPGQGLEWMGIINPSGGSTSYAQKFQGRVTMTRDTSTSTVYMELSSLRSEDTAVYYCARGEWIRYYHFDYWGQGTLVTVSS
VL: QAVVTQEPSLTVSPGGTVTLTCGSSTGAVTTSNYANWVQEKPGQAFRGLIGGTNKRAPGTPARFSGSLLGGKAALTLSGAQPEDEAEYYCALWYSNLWVFGGGTKLTVL
Regarding B10, the binding result in experiment [1], in experiment [2], in experiment [3] and in [4] was “no binding” throughout.

B11: 21D1 IgG (antibody, V domains shown)
VH: QVQLVQSGAEVKKPGASVKVSCKASGYTFTSYYMHWVRQAPGQGLEWMGIINPSGGSTSYAQKFQGRVTMTRDTSTSTVYMELSSLRSEDTAVYYCARNYYVGVSPFDYWGQGTLVTVSS
VL: QAVVTQEPSLTVSPGGTVTLTCGSSTGAVTTSNYANWVQEKPGQAFRGLIGGTNKRAPGTPARFSGSLLGGKAALTLSGAQPEDEAEYYCALWYSNLWVFGGGTKLTVL
notes: human IgG1
With B11, the binding result in [5] and in experiment [6] was “no binding (tested: 500 nM)” in each case.

B12: 15H7 IgG (antibody, V domains shown)
VH: QVQLVQSGAEVKKPGASVKVSCKASGYTFTSYYMHWVRQAPGQGLEWMGIINPSGGSTSYAQKFQGRVTMTRDTSTSTVYMELSSLRSEDTAVYYCARNYYLFSTSFDYWGQGTLVTVSS
VL: QAVVTQEPSLTVSPGGTVTLTCGSSTGAVTTSNYANWVQEKPGQAFRGLIGGTNKRAPGTPARFSGSLLGGKAALTLSGAQPEDEAEYYCALWYSNLWVFGGGTKLTVL
notes: human IgG1
B12: the binding result in experiment [5] and in experiment [6] was “no binding (tested: 500 nM)” in each case.

B13: 16A3 IgG (antibody, V domains shown)
VH: QVQLVQSGAEVKKPGASVKVSCKASGYTFTSYYMHWVRQAPGQGLEWMGIINPSGGSTSYAQKFQGRVTMTRDTSTSTVYMELSSLRSEDTAVYYCARNYYAGVTPFDYWGQGTLVTVSS
VL: QAVVTQEPSLTVSPGGTVTLTCGSSTGAVTTSNYANWVQEKPGQAFRGLIGGTNKRAPGTPARFSGSLLGGKAALTLSGAQPEDEAEYYCALWYSNLWVFGGGTKLTVL
notes: human IgG1
Regarding B13, the binding result in [5] and in experiment [6] was “no binding (tested: 500 nM)” each time.

B14: Tim3_0038 (antibody, V domains shown)
VH: EVQLQQSGAEPLKPGASVKLTCTTSGFNIKDYYIHWVKQRSDQGLEWIGRIDPEDGELIYAPKFQDKATITVDTSSNIAYLQLNSLTSEDTAVYYCSRDHGYVGWFAYWGQGTLVTVSA
VL: NVVMTQSPKSMIMSVGQRVTLNCKASENVDTYVSWYQQKPEQSPKLLIYGASNRYTGVPDRFTGSRSATDFTLTISSVQAEDLAVYYCGQSYSYPWTFGGGTKLEFR
B14: the MFI in experiment [7] came out at 107 MFI; in experiment [8] it was 120 MFI; in [13] it was 97 MFI. Further, the “specific binding MFI” value with human TIM-3 on cells [9] came out at 1370 MFI; in the experiment with human TIM-3 on cells [11], 1400 MFI; with human TIM-3 on cells [12] it was 1640 MFI. Besides, in the experiment with human TIM-3 on cells [10], the “IFN-gamma release in MLR at 1 µg/ml, % of IL-2 control” value was 1%. The “IFN-gamma release in MLR at 10 µg/ml, % of IL-2 control” value with human TIM-3 on cells [10] worked out at 38%. Further, the “IFN-gamma release in MLR at 40 µg/ml, % of IL-2 control” value with human TIM-3 on cells [10] is 51%.
